Experiment: soluble fraction after stress (log2 fold change); higher = more stays soluble; pooled small domains, quantitative proteomics
Settings: stress: 50 degC
In short: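 Custom libraries of small protein domains were pooled and measured in a high-throughput format, with quantitative proteomics as the read-out. Each library was stressed at 50°C. The value is the log2 fold change in the amount of each protein that stays soluble after stress, used as a measure of aggregation propensity; higher values mean more of the protein stays soluble.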

| Sequence | soluble fraction (log2) |
| --- | --- |
| HMQAPIFMNETDGKWYFREKYLNDNHEIAYRVHPEGYDQMEDALRNSVNALNEFAAEMKELRKQV | -0.0683 |
| HMPSPTPEQVLKAFTDAAMQKNTVEELKQAFAKAWKMLEGTPEQHKAQDVYNIRRDELEGAA | -0.173 |
| HMELMKPPGYWQSLENAIYESKKVIKEHGFDTLPSSNKLRELDYHGLSRAISVHHSGFPNFREIMNQELGI | 0.172 |
| HMAGNNTATKEIAELLIAKGADVNAMNLSPPGREIGGMTPLDMAILGNRNEIADLLRKHGGRTQKELKAE | 0.356 |
| HMPPRFVPATGADLRRWLDVSGLTAEAAGDLLGVSGARFRQWLSRYRSAPLPDPVRALLVALLRP | -0.155 |
| HMKQQFTREQIIELMYKAYKKHKKKLNRVEIKKEKALPSYVTIGRYLNETSIKKIWEIVLSEKE | -0.43 |
| HMGNLASRVAEQLLDKMRGDSLVPGTRLPSEIAMAKHFGVSRTVMREAIARLKADGLLETRRGSGAFVLAT | -0.664 |
| HMTKMTPNRQLVLSVLQSSGKPLSAYELLDRLREQGTQWQPPTAYRALDYLVEQGLAHYLQSIQKYV | -1.1 |
| HMITLKKRRQEAILEIIEKYDLSTQDELLQKLKDSGFDATQATVSRDIKELRLVKTMGANGQYKYAVT | -0.403 |
| HMITNEDINIKKLLVVMKDTPLSANEIMDKLNIKSKETLRNMYLDPAIKKGLINLTIPDKPTSKNQKYYK | -0.0903 |
| HMAEVIYGAGKTPAQMLGILRTMQAHGQKTVLITRLREEAAEEIGREIPLQYDKTAGVGIVGTLPQPDG | -0.0493 |
| HMKELVAGQTVRVHHSIGFGQTGTVTALNSLKTTLPNGLRTNTASILFQNNEKVVLPISNFDIIES | -0.139 |
| HMSGKWKIRILWYIAEYEVQRFGELRRRLGDITQSTLTEQLRELEQDGFVSRYVYQEVPSKVEYSLTE | 0.143 |
| HMVAPPILNITTHIFAEEADLRMVMINGVTRREGDSLGENHRLLEITERGLILIFHNKQYTLDV | -3.68 |
| HMIAALEGKQAMVLDQVSLHHGQVKLGGEVWTARPLNDQDVYEPGDRVTVMRIDGATAVVWRN | -0.281 |
| HMDTNEPFAQLQLRFTDPIQYDYEVIRPVVLFSQSVTDRSDETEMPRTTVREKARQFVTEGMLGLVDK | -0.00748 |
| HMLRVVSTRQAFDIVRGWADAHPQDPEHNKTLDELEELAKKEVWDDWSRTNEIAERLNALLVSIGANVRTA | -0.742 |
| HMSTPLVATLRKRIIDGHYPPGERLAEIPVAEAFGVSRTPVRLAFRTLEQEGLLEKAGKRGYAVRA | 0.0325 |
| HMIADPLVINKLMDSMALAINDYNPDSVEPVLDELRQYFSENQLRELSKAMDDFDFDEALNALTLLRT | -0.382 |

| Sequence | soluble fraction (log2) |
| --- | --- |
| HMITMWYYKKDGNIIGPASARKIASMRELGIITDSTPVSRKRNAKNWETFGGLSEKINLESSQWD | -1.9 |
| HMWDRFGELDSAEEINRIAAAELREGDIDALKVLAEENGLDKDDVEDYIDRLIDELTTPELAAIGKLDV | 0.0934 |
| HMRSHLSANLQRLRHIAGLTQKDLALAANLPRATLASLEQGEANPRLDTLLAVASALQVGLDELIAAP | -0.866 |
| HMQMLQDPFLNALRKEHVPVSIYLVNGIKLQGQVESFDQYVVLLRNTSVTQMVYKHAISTIVPARAVSL | -0.403 |
| HMDRYAVRAEELAAALAQYHRHVGVYPENLEDLIAPTGPRGYRGPYLSELPTNPSTSKPDWGYDPATGRVS | 0.198 |
| HMGALARLLASVEQELGVTRDRMTRTQKQEAVTLLNEWGAFTLRKSVEDVAEALGVSRFTVYNYLERAEA | -2.74 |
| HMAGSTAASKHALALLNTARHSIRDGNLTSAAAEIKQALATSQEQIVITEARSLMTAMEARATTRRATVLQ | -0.168 |
| HMSVTIENQINTYFQTRDKISRDELVALIKKDFANWTDNTINIYVSSLQKRGIIHSLSRGMYALGN | -1.98 |
| HMRSGEDESFSAGLLEYPHYTRPAEFEGHRIPDILTSGDHAKVDAWRQEMSEHITRERRPDLWEMYKKK | 0.0901 |
| HMGGLLSVIQKKAINNVKDRYSENAIKSMTKVQLHDLIKAETSRLLDPANAKETPEYQAFLEE | 0.0926 |
| HMHNPSYDMSKDVDILVMKFRDYNNLTDDEARFLLDKAKDAYYNTGKEILSDNEYDTLEKSLGQE | 0.178 |
| HMDSRQIIAALQARYADETGITALKIKFNNVLGYFVDVPARYGDPLMKPPLSETFIHRQTLASNVRF | -0.0732 |
| HMDAEWRTLTLAPEQHQQRLDRALADSLPEFSRSYVQQLIDTGMVRVNGVLAAKSAQRVKALDQVQVELR | -0.229 |
| HMDPNFKYIIRIANSDVSGEQKLAYALTSIRGIGERTSNAIIQKLGLDSTQLAGKLTDKNVEDIESA | -0.027 |
| HMVAGHLQTKKGYYYIVLNMRTDTGARKTKWIATGIPEGGKKNLKQAEELLAKTRYTYEDMVI | -0.792 |
| HMRARTQYWPFVEEKAAELKLPLHLVNVEPLFGEQKVVVHYTANGRIDFRELVHLLARRFHARIEMR | 0.212 |
| HMFDFGNHLRMLREKHGISQEELGRRVGRAGSVISNYENNIKIPTLDVLTTMARIYDVSLDYLVG | -1.36 |
| HMGVGVTAPLAGNIFKIVKQPGDVVASGDVVLILEAMKMETEIRAAAGGTVKQVLVREGDAVDAGHTLMTL | -0.309 |

Source: the domain aggregation screens of Martell et al. (2025)
